Experimental findings from patent US20190018005A1 are described below.

The target in experiment [1] is 3.3 antibody (an anti-PEG antibody, IgG type). Nature of the experiment: ELISA, biotin-3.3Ab 0.33 µg/mL on plate coated with poly-protein G, streptavidin-HRP, OD405. (In an ELISA, binding on a coated surface is turned into a signal by an enzyme label.)
Experiment [2] has the same target. Nature of the experiment: ELISA, biotin-3.3Ab 0.0371 µg/mL on plate coated with poly-protein G, streptavidin-HRP, OD405.
Experiment [3] has the same target. Nature of the experiment: ELISA, biotin-3.3Ab 1 µg/mL on plate coated with poly-protein G, streptavidin-HRP, OD405.
For experiment [4] the target is unchanged. Nature of the experiment: ELISA, biotin-3.3Ab 0.0123 µg/mL on plate coated with poly-protein G, streptavidin-HRP, OD405.
The target is the same in experiment [5]. Nature of the experiment: ELISA, biotin-3.3Ab 0.11 µg/mL on plate coated with poly-protein G, streptavidin-HRP, OD405.

B1: poly-protein G (soluble; HA, eight repeats of C2 domain of protein G with linkers, six histidines) (protein, not shown: small tags and cut ends)
chain: TYKLVINGKTLKGETTTEAVDAATAEKVFKQYANDNGVDGEWTYDDATKTFTVTEGGGGSGGGGSVETYKLVINGKTLKGETTTEAVDAATAEKVFKQYANDNGVDGEWTYDDATKTFTVTEGGGGSGGGGSVETYKLVINGKTLKGETTTEAVDAATAEKVFKQYANDNGVDGEWTYDDATKTFTVTEGGGGSGGGGSVETYKLVINGKTLKGETTTEAVDAATAEKVFKQYANDNGVDGEWTYDDATKTFTVTEGGGGSGGGGSVETYKLVINGKTLKGETTTEAVDAATAEKVFKQYANDNGVDGEWTYDDATKTFTVTEGGGGSGGGGSVETYKLVINGKTLKGETTTEAVDAATAEKVFKQYANDNGVDGEWTYDDATKTFTVTEGGGGSGGGGSVETYKLVINGKTLKGETTTEAVDAATAEKVFKQYANDNGVDGEWTYDDATKTFTVTEGGGGSGGGGSVETYKLVINGKTLKGETTTEAVDAATAEKVFKQYANDNGVDGEWTYDDATKTFTVTEGGGGSGGGGSVHHHHHH
As to B1, the fold antibody amount loaded vs commercial protein G-based plate in experiment [1] was 1.3 times; in experiment [2], 5.8 times; in experiment [3], 1.15 times; in experiment [4], 7.8 times; in experiment [5], 4 times. Further, the fold antibody amount loaded vs traditional polystyrene-based plate was determined as 2.2 times in experiment [1]; 20 times in experiment [2]; 1.3 times in experiment [3]; 14 times in experiment [4]; 10 times in experiment [5].
